B1: Ubac2-EGFP (natural protein, mouse, UniProt Q8R1K1 40-345, looked up)
chain: FFVYDLHAVKHDLQIWRLICGRIICLDLKDAFCSGLLIYNFRIFERRYGSRKFASFLLGSWVLSALFDFILVEAVQYSLGVTVASNLPSGFLAPVFALFVPFHCSIPRVQVAQILGPLSITNKTLIYILGLQLFTSGSYIWIVAMSGLISGMCYDRKVLQVHQVLRIPGRMAEFFSWALEPIFSSSEPTSEARVGMGATVDIQRQQRMEQLDRQLMLSQFAQVRRQRQQQGGMINWNRLFPPLRQRRNINYQDGPRSEQRASPPLEVSEEQVARLMEMGFSRGDALEALRASNNDLNVATNFLLQH
notes: Ubac2, mouse cDNA from the IMAGE consortium, subcloned into pEGFP-N1; FRET donor; vector pEGFP-N1; source: HEK293T, transfected, in living cells
B2: Derlin1-EGFP (natural protein, mouse, UniProt Q99J56 1-251, looked up)
chain: MSDIGDWFRSIPAITRYWFAATVAVPLIGKLGIISPAYFFLWPEAFLYRFQIWRPFTATFYFPVGPGTGFLYLVNLYFLYQYSTRLEAGAFDGRPADYLFMLLFNWICIVITGLAMDMQLLMIPLIMSVLYVWAQLNRDLIVSFWFGTRFKACYLPWVILGFNYIIGGSVINELIGNLVGHLYFFLMFRYPMDLGGRNFLSTPQFLYRWLPSRRGGVSGFGVPPASMRRAADQNGGGGRHNWGQGFRLGDQ
notes: Derlin1, mouse cDNA from the IMAGE consortium, subcloned into pEGFP-N1; FRET donor; vector pEGFP-N1; source: HEK293T, transfected, in living cells
B3: EMC1-EGFP (natural protein, mouse, UniProt Q8C7X2 24-997, looked up)
chain: YEDQVGKFDWRQQYVGKIKFASLEFSPGSKKLVVATEKNVIAALNSRTGEILWRHVDKGTAEGAVDAMLVHGQDAITVSNGGRLMRSWETNIGGLNWEITLDTGSFQALGLVGLQESVRYIAVLKKTTLTLHHLSSGHLKWVEHLPESDSILYQMVYSYGSGVVWALGIVPFSHVNIVKFNVEDGEIVQQVRVWTPWLQHLTGACGVVDEAVLVCPDPSSHSLHTLALETEWELRQIPLQSPDLEFGSGFQPQVLPTQPSPVAPSRAQFFLQLSPSHYALLHYHHGAVTLLKNFPQATLVSFATTGEKTVAAVMTCRTEVQKPVSAGDGSVASFPETSGAQDSLACFNQTYTINLYLVETGRRLLDTSISFSLEQKGTRPEQLYIQVFLKKDDSVGYRALVQTQDHLQLFLQQLAGKVVLWSREESLAEVVCLEMVDLPLTGAQAELEGEFGKKAAIQDGLLGMFLKRLSSQLILLQAWTSHLWKMFYDARKPRSQIKNEINIDTLARDEFNLQKMMVTVTASGKLFGIESSSGTILWKQYLPNVKPDSSFKLMVQRTTAHFPHPPQCTLLVKDKETGMSSLFVFNPIFGKWSQVAPPVLKRPILQSLLLPVMDQDYAKVLLLVDDEYKVTAFPATRNVLRQLHELAPSIFFYLVDAEQGRLSGYQLRKDLTTELSWELTIPPEVQRVVKVKGKRSSEHVHSQGRVMGDRSVLYKSLNPNLLAVVTESTDVHHERTFIGIFLIDGVTGRIIHSSVQKKARGPVHLVHSENWVVYQYWNSKARRNELTALELYEGTEQYNATAFSSLDRPQLPQVLQQSYIFPSSISAMEATITERGITSRHLLIGLPSGAILSLPKALLDPRRPEIPTEQSREENLIPYSPDVQVHAERFINYNQTVSRMRGIYTAPSGLESTCLVVAYGLDIYQTRVYPSKQFDVLKDDYDYVLISSVLFGLVFATMITKRLAQVKLLNRAWR
notes: EMC1, mouse cDNA from the IMAGE consortium, subcloned into pEGFP-N1; FRET donor; vector pEGFP-N1; source: HEK293T, transfected, in living cells
B4: EMC3-EGFP (natural protein, mouse, UniProt Q99KI3 1-261, looked up)
chain: MAGPELLLDSNIRLWVVLPIVIITFFVGMIRHYVSILLQSDKKLTQEQVSDSQVLIRSRVLRENGKYIPKQSFLTRKYYFNNPEDGFFKKTKRKVVPPSPMTDPTMLTDMMKGNVTNVLPMILIGGWINMTFSGFVTTKVPFPLTLRFKPMLQQGIELLTLDASWVSSASWYFLNVFGLRSIYSLILGQDNAADQSRMMQEQMTGAAMAMPADTNKAFKTEWEALELTDHQWALDDVEEELMARDLHFEGMFKKELQTSIF
notes: EMC3, mouse cDNA from the IMAGE consortium, subcloned into pEGFP-N1; FRET donor; vector pEGFP-N1; also called EMC3-GFP; source: HEK293T, transfected, in living cells
B5: SYVN1-EGFP (natural protein, mouse, UniProt Q9DBY1 1-612, looked up)
chain: MFRTAVMMAASLALTGAVVAHAYYLKHQFYPTVVYLTKSSPSMAVLYIQAFVLVFLLGKVMGKVFFGQLRAAEMEHLLERSWYAVTETCLAFTVFRDDFSPRFVALFTLLLFLKCFHWLAEDRVDFMERSPNISWLFHCRIVSLMFLLGILDFLFVSHAYHSILTRGASVQLVFGFEYAILMTMVLTIFIKYVLHSVDLQSENPWDNKAVYMLYTELFTGFIKVLLYMAFMTIMIKVHTFPLFAIRPMYLAMRQFKKAVTDAIMSRRAIRNMNTLYPDATPEELQAVDNVCIICREEMVTGAKRLPCNHIFHTSCLRSWFQRQQTCPTCRMDVLRASLPAQSPPPPEPADQGPPPAPHPQPLLPQPPNFPQGLLPPFPPGMFPLWPPMGPFPPVPPPPSSGEAAAPPPTSTAVSRPSGAATTTAAGTSTSAPAPGSVPGPEAGPAPGFPFPPPWMGMPLPPPFAFPPMPVPPAGFAGLTPEELRALEGHERQHLEARLQSLRNIHTLLDAAMLQINQYLTVLASLGPPRPATSVNPTEETASTVVSAAPSTSAPSSEAPTPSPGASPPIPEAEKPPAPESVGIVEELPEDGEPDAAELRRRRLQKLESPVAH
notes: SYVN1 (Hrd1), mouse cDNA from the IMAGE consortium, subcloned into pEGFP-N1; FRET donor; vector pEGFP-N1; also called SYVN1-GFP; source: HEK293T, transfected, in living cells

Molecular target: T1, membralin-mCherry (mouse, UniProt Q8CIV2 1-574)
T1 construct: membralin (TMEM259), mouse cDNA from the IMAGE consortium, subcloned into pmCherry-N1; FRET acceptor; also called mCherry-tagged membralin; source: HEK293T, transfected, in living cells
T1 sequence (Q8CIV2 whole entry): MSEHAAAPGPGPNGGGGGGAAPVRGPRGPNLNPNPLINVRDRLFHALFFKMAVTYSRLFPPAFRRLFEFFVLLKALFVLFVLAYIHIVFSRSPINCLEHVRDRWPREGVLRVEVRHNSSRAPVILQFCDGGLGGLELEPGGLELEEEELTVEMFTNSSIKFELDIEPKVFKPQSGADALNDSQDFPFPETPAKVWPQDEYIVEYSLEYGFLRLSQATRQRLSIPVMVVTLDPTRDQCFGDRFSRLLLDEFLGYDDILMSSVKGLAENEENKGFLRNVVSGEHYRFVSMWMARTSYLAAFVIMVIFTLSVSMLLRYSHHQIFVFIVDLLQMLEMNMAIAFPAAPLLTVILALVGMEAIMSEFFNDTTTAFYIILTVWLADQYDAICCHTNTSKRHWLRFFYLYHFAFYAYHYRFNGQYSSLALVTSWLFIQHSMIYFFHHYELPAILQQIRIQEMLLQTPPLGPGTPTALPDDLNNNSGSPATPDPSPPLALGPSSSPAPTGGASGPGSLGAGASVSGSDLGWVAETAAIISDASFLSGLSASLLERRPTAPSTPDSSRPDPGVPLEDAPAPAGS
Test: FRET or BRET; acceptor photobleaching in HEK293T co-transfected 24 h with target-EGFP (donor) and membralin-mCherry (acceptor); 10 cells, three independent experiments
Conditions: not given

Question: With “FAM8A1-EGFP (from UniProt Q9UBU6 1-413) (natural protein)” as the molecule, how does the FRET efficiency read?
Answer: 33.9%

Same assay, conditions: partners not purified

Question: B1 was tested. Which FRET efficiency did it give?
Answer: 33.1%

Question: B2 was tested. Which FRET efficiency did it give?
Answer: 12.3%

Question: For B3, which FRET efficiency is on record?
Answer: 22.4%

Question: For B4, which FRET efficiency is on record?
Answer: 26.3%

Question: How did the FRET efficiency turn out when B5 was run?
Answer: 21.8%
